Experimental data from article PMC11055898 (2024).

How the values were obtained:
human CD64 (FcgRI) [1] = target: T1, human CD64 (FcgRI) (human, UniProt P12314 16-374, biotin (biotinylated Fc receptors)); test: SPR
human CD64 (FcgRI) [2] = target: T1, human CD64 (FcgRI); test: SPR; remark: listed apart in the source
human FcRn [3] = test: SPR; pH 6.2
mouse CD16 [4] = test: SPR
mouse CD16-2 [5] = test: SPR
mouse CD64 [6] = test: SPR
human FcRn [7] = test: SPR; pH 6.2; remark: listed apart in the source
mouse CD16 [8] = test: SPR; remark: listed apart in the source
mouse CD16-2 [9] = test: SPR; remark: listed apart in the source
mouse CD64 [10] = test: SPR; remark: listed apart in the source

T1 sequence (P12314 16-374): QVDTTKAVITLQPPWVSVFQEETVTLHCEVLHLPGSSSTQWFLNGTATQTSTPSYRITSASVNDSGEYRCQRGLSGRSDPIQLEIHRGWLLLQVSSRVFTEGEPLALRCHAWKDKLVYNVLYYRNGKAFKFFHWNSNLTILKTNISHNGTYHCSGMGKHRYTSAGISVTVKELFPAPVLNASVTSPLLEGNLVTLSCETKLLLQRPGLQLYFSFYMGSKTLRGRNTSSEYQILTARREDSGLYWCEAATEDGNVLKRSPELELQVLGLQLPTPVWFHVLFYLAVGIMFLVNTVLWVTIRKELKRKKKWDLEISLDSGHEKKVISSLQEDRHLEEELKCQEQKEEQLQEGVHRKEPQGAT

B1: Ab11 IgGh47 (antibody)
chain 1: QVTLKESGPVLVKPTETLTLTCTVSGFSLSNAKMGVSWIRQPPGKALEWLAHIFSNDEKSYSTSLKSSLTISKDTSKSQVVLTMTNMDPVDTATYYCARLLWFGGNYFDYWGQGTLVTVSS
chain 2: not shown
With B1 the koff (human CD64 (FcgRI) [1]) was 0.00017 s⁻¹, the Kd (human CD64 (FcgRI) [2]) was 2.1 nM and the Kd (human FcRn [3]) was 7.1 nM. For the same binder, the Kd (mouse CD16 [4]) was 15 nM, the Kd (mouse CD16-2 [5]) was 24 nM and the Kd (mouse CD64 [6]) was 7 nM. It also gave a koff (human FcRn [7]) of 0.00048 s⁻¹, a koff (mouse CD16 [8]) of 0.00074 s⁻¹ and a koff (mouse CD16-2 [9]) of 0.0018 s⁻¹. The koff (mouse CD64 [10]) was 0.00083 s⁻¹.
